Data published in patent US20190321303A1.
Values belong to the substance of their own block, whether it stands above or below them.

Key:
Assay in all cases: cell-based or functional assay
[1] = molecular target: Chymotrypsin having an activity of approx. 40 BTEE units per mg
[2] = molecular target: Chymotrypsin having an activity of approx. 40 BTEE units per mg; details: scale: mg ChymoTrypsin inhibited/1 mgP-ChymoTrypsin Inhibitor
[3] = molecular target: Trypsin having an activity of approx. 10,000 BAEE units per mg
[4] = scale: mg ChymoTrypsin inhibited/1 mgP-ChymoTrypsin Inhibitor

BBI activity of final product, after the change of the filtration process [1]: 0.8 to 1.4 mg⁻¹
BBI activity of final product, before the change of the filtration process [1]: 0.4 to 0.6 mg⁻¹
BBI activity, step: Final after lyophilization "as-is" (mg chymotrypsin inhibited per mg solid) [1]: 0.8
Chymotrypsin inhibitor activity of purified BBI (mg chymotrypsin inhibited per mg) [1]: 1.49
BBI activity, step: BBI permeate of 30 Kda. [1, 4]: 0.8
BBI activity, step: BBI pool [1, 4]: 0.5
BBI activity, step: Permeate of 5 KDa [1, 4]: 0.13
BBI activity, step: Retentate of 5 KDa after 4.5 x concentration [1, 4]: 0.8
BBI activity, step: Retentate of 10 Kda after diafiltration [1, 4]: 0.7
BBI activity, step: Retentate of 30 KDa [1, 4]: 0.13
BBI activity, final lyophilized product on the basis of dry weight ([1]; scale: mg chymotrypsin inhibited per mg dry weight): 0.9
BBI Activity, large-scale prep ([1]; scale: not given): 1.49
BBI Activity, previous procedure ([1]; scale: not given): 1.2
BBI activity, step: BBI After formulation and microfiltration 0.45/0.2 [2]: 0.8
BBI activity, step: BBI permeate, after 30 Kda UF and additional washes [2]: 0.8
BBI activity, step: BBI pool [2]: 0.6
BBI activity, step: BBI pool after microfiltration 0.45/0.2 [2]: 0.6
BBI activity, step: Final after lyophilization [2]: 0.9
BBI activity, step: Retentate of 5 KDa after 5x concentration [2]: 0.9
BBI activity, step: Retentate of 10 Kda after diafiltration [2]: 1
Substance: Bowman-Birk inhibitor (BBI) purified from soy flour

BBI activity, quality control of material loaded on the DEAE column [1]: 0.09 not printed
Chymotrypsin inhibitor activity of SBTI intermediate (large-scale prep) (mg chymotrypsin inhibited per mg protein) [1]: 0.98
KTI activity, quality control of material loaded on the DEAE column [3]: 0.97 not printed
Trypsin inhibitor activity of SBTI intermediate (large-scale prep) (mg trypsin inhibited per mg protein) [3]: 1.34
Substance: SBTI intermediate (crude soybean trypsin inhibitor preparation from soy flour)
